This experiment has as its target T1, soybean agglutinin (SBA)-alkaline phosphatase conjugate (soybean, UniProt P05046 33-285, conjugated to alkaline phosphatase (EY Laboratories)).
T1 construct: Lectin; Alkaline phosphatase part not described; also called GalNAc-specific lectin; SBA lectin
The experiment can be described thus: Western blot of 2D gel probed with SBA-alkaline phosphatase conjugate. In general terms: In western blotting, separated proteins are transferred to a membrane and probed.

Here are results for three molecules from patent US7598354 (NATIONAL RESEARCH COUNCIL OF CANADA, dated 2009).

T1 sequence (P05046 33-285 limits assumed): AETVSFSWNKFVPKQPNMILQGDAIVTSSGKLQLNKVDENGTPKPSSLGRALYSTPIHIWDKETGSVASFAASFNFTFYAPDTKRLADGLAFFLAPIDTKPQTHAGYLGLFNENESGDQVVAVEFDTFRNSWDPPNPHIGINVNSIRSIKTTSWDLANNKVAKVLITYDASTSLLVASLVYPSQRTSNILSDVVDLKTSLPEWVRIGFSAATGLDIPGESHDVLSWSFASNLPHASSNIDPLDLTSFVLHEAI

B1: Cj0638c, inorganic pyrophosphatase (Ppa) (enzyme)
chain: MNLSKIKIGDIPNKINAVIEIPYGSNIKYEIDKDSGAIMVDRVMASAIFYPANYGFIANTLADDGDPVDILVLNEYPIQAGAVIPCRLIGVLIMEDESGMDEKLLAVPNSKIDARYDNIKTYTDLPQATLNKIKNFFETYKILEPNKWVKVQDFKDEKAAIEILEKAIKNYK
With B1, the binding result is reported as “no binding (tested: 10 µg/mL)”.

B2: Cj0169, superoxide dismutase (Fe; SodB) (enzyme)
chain: MFELRKLPYDTNAFGDFLSAETFSYHHGKHHNTYVTNLNNLIKDTEFAGKDLVSIIKTSNGGVFNNAAQVYNHDFYFDCIKPSTGCGCGGSCQSIDANLQAALEKEFGSLENFKAEFIKGATGVFGSGWFWLVYNTKNQKLEFVGTSNAATPITEDKVPLLVVDVWEHAYYVDHRNARPAYLEKFYAHINWEFVAKAYEWALKEGMGSVSFYANELHPVK
For the molecule B2, the binding result is reported as “no binding (tested: 10 µg/mL)”.

B3: Cj0332c, nucleoside diphosphate kinase (Ndk) (enzyme)
chain: MEKTLSIIKPDAVKKGVIGKILDRFESNGLRIAAMKKVQLSKEQAENFYAVHKERPFFKDLVEFMISGPVVVSILEGEGAVLKNRDLMGATNPKEAKAGTIRADFAESIDANAVHGSDSLENAKIEIEFFFKPNEIC
As for B3, the binding result is reported as “no binding (tested: 10 µg/mL)”.
